# Measured values reported in patent publication US20160264663A1 (published 2016).
# B1: Rb/Hu Podo83 (Podo83 rabbit VH and VL, human IgG1 chimera) (antibody, V domains shown)
# VH: CQSLAESGGRLVTPGTPLTLTCTASGIDLSSYAMGWVRQAPGKGLEYIGFIYASGSIFYASWAKGRFTISKTSSTTVDLKMTSLTTEDTATYFCARAGYYFGGNYDLNLWGQGTLVTVSS
# VL: DIVLTQTPASVEVAVGGTVTIKCQASQSISNYLAWYQRKPGQPPRLLIYRASTLASGVSSRFKGSGSGTQFTLTISGVECADAATYYCQQGYVSNNLDNIFGGGTEVVVK
# modifications: human IgG1/kappa constant regions
# Columns and labels:
# [1] = target: T1, human podocalyxin (human); assay: flow cytometry, control, 1:5, MDA-MB-231 cells
# T1 chain: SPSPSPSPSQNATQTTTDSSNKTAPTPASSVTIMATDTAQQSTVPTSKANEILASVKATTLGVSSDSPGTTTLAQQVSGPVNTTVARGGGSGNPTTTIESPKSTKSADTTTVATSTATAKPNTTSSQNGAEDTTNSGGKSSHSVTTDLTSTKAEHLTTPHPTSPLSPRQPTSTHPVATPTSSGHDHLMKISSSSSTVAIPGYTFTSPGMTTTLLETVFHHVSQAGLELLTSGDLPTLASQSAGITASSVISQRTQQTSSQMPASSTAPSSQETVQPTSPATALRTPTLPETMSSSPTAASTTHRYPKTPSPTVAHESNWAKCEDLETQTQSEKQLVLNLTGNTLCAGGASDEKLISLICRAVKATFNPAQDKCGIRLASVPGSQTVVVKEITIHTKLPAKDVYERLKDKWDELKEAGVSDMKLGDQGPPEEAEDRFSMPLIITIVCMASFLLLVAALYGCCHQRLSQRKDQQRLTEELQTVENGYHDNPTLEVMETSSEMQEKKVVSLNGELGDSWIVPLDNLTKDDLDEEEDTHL
# [2] = target: T1, human podocalyxin; assay: flow cytometry, control, neat, MDA-MB-231 cells
# [3] = target: T1, human podocalyxin; assay: flow cytometry, control, 1:125, MDA-MB-231 cells
# [4] = target: T1, human podocalyxin; assay: flow cytometry, control, 2:15 (so in the source), MDA-MB-231 cells
# [5] = target: T1, human podocalyxin; assay: flow cytometry, control, 1:5, hPodo/MDA-MB-231 transient transfectants
# [6] = target: T1, human podocalyxin; assay: flow cytometry, control, neat, hPodo/MDA-MB-231 transient transfectants
# [7] = target: T1, human podocalyxin; assay: flow cytometry, control, 1:125, hPodo/MDA-MB-231 transient transfectants
# [8] = target: T1, human podocalyxin; assay: flow cytometry, control, 2:15 (so in the source), hPodo/MDA-MB-231 transient transfectants
# [9] = target: human podocalyxin (human); assay: flow cytometry, A172 cells
# [10] = target: human podocalyxin (human); assay: flow cytometry, MCF7 cells
# [11] = target: human podocalyxin (human); assay: flow cytometry, CaOV3 cells
# [12] = target: human podocalyxin (human); assay: flow cytometry, HUVEC cells
# [13] = target: human podocalyxin (human); assay: flow cytometry, SKOV3 cells
# [14] = target: human podocalyxin (human); assay: flow cytometry, T47-D cells
# [15] = target: human podocalyxin (human); assay: flow cytometry, OVCAR3 cells
# [16] = target: human podocalyxin (human); assay: flow cytometry, 293 HEK cells
# [17] = target: human podocalyxin (human); assay: flow cytometry, OVCAR10 cells
# [18] = target: human podocalyxin (human); assay: flow cytometry, 5 ug/mL antibody, 293 cells
# [19] = target: human podocalyxin (human); assay: flow cytometry, 5 ug/mL antibody, A172 cells
# [20] = target: human podocalyxin (human); assay: flow cytometry, 5 ug/mL antibody, MCF7 cells
# [21] = target: human podocalyxin (human); assay: flow cytometry, 5 ug/mL antibody, CaOV3 cells
# [22] = target: human podocalyxin (human); assay: flow cytometry, 5 ug/mL antibody, HUVEC cells
# [23] = target: human podocalyxin (human); assay: flow cytometry, 5 ug/mL antibody, T47-D cells
# [24] = target: human podocalyxin (human); assay: flow cytometry, 5 ug/mL antibody, OVCAR3 cells
# [25] = target: human podocalyxin (human); assay: flow cytometry, 5 ug/mL antibody, OVCAR10 cells
# [26] = target: human podocalyxin (human); assay: flow cytometry, supernatant 1:5, MDA-MB-231 cells
# [27] = target: human podocalyxin (human); assay: kinetic exclusion assay (KinExA 3200), A172 cells
# [28] = target: human podocalyxin (human); assay: flow cytometry, 5 ug/mL antibody, MDA-MB-231 cells
# [29] = target: human podocalyxin (human); assay: flow cytometry, supernatant neat, MDA-MB-231 cells
# [30] = target: human podocalyxin (human); assay: flow cytometry, supernatant 1:125, MDA-MB-231 cells
# [31] = target: human podocalyxin (human); assay: flow cytometry, MDA-MB-231 cells
# [32] = target: human podocalyxin (human); assay: kinetic exclusion assay (KinExA 3200), MDA-MB-231 cells
# [33] = target: human podocalyxin (human); assay: flow cytometry, supernatant 2:15 (so in the source), MDA-MB-231 cells
# [34] = target: human podocalyxin (human); assay: flow cytometry, supernatant 1:5, hPodo/MDA-MB-231 transient transfectants
# [35] = target: human podocalyxin (human); assay: flow cytometry, supernatant neat, hPodo/MDA-MB-231 transient transfectants
# [36] = target: human podocalyxin (human); assay: FACS, hPodo/MDA cells (MDA-MB-231 transfected with human podocalyxin cDNA)
# [37] = target: human podocalyxin (human); assay: flow cytometry, supernatant 1:125, hPodo/MDA-MB-231 transient transfectants
# [38] = target: human podocalyxin (human); assay: flow cytometry titration on 293-6E cells (endogenous podocalyxin), 24 hours at 4 C
# [39] = target: human podocalyxin (human); assay: flow cytometry titration on 293-6E cells (endogenous podocalyxin), 48 hours at 4 C
# [40] = target: human podocalyxin (human); assay: flow cytometry, supernatant 2:15 (so in the source), hPodo/MDA-MB-231 transient transfectants
# [41] = target: human podocalyxin (human); assay: FACS on MDA-MB-231 cells; biotinylated antibody 5 ug/mL, no competitor (FACS Buffer row)
molecule,measurement,setting,value
Rb IgG (antibody),FACS signal (name not given),[1],467
same,FACS signal (name not given),[2],574
same,FACS signal (name not given),[3],431
same,FACS signal (name not given),[4],438
same,FACS signal (name not given),[5],660
same,FACS signal (name not given),[6],762
same,FACS signal (name not given),[7],645
same,FACS signal (name not given),[8],617
B1,Live cell GeoMean FL (geometric mean fluorescence units),[9],224000
same,Live cell GeoMean FL (geometric mean fluorescence units),[10],28400
same,Live cell GeoMean FL (geometric mean fluorescence units),[11],23400
same,Live cell GeoMean FL (geometric mean fluorescence units),[12],24500
same,Live cell GeoMean FL (geometric mean fluorescence units),[13],59800
same,Live cell GeoMean FL (geometric mean fluorescence units),[14],1130
same,Live cell GeoMean FL (geometric mean fluorescence units),[15],28600
same,Live cell GeoMean FL (geometric mean fluorescence units),[16],28200
same,Live cell GeoMean FL (geometric mean fluorescence units),[17],1530
same,Live cell GeoMean FL (geometric mean fluorescence units),[18],28200
same,Live cell GeoMean FL (geometric mean fluorescence units),[19],170000
same,Live cell GeoMean FL (geometric mean fluorescence units),[20],60800
same,Live cell GeoMean FL (geometric mean fluorescence units),[21],48800
same,Live cell GeoMean FL (geometric mean fluorescence units),[22],44600
same,Live cell GeoMean FL (geometric mean fluorescence units),[23],1500
same,Live cell GeoMean FL (geometric mean fluorescence units),[24],16500
same,Live cell GeoMean FL (geometric mean fluorescence units),[25],2820
same,FACS signal (name not given),[26],121000
same,Kd,[27],0.103 nM
same,Live cell GeoMean FL (geometric mean fluorescence units),[28],91900
same,FACS signal (name not given),[29],143000
same,FACS signal (name not given),[30],50600
same,Live cell GeoMean FL (geometric mean fluorescence units),[31],88900
same,Kd,[32],0.0456 nM
same,FACS signal (name not given),[33],102000
same,FACS signal (name not given),[34],99300
same,FACS signal (name not given),[35],79000
same,FACS signal (name not given),[36],178000
same,FACS signal (name not given),[37],58500
same,EC50,[38],0.0295 µg/mL
same,EC50 (half-maximal binding),[39],0.0305 µg/mL
same,FACS signal (name not given),[40],155000
same,FACS signal (name not given),[41],139000
